# Positions count from the first letter of the chain named.
# T1: HumanB7-H4 (Homo sapiens, UniProt Q7Z7D3)
# T1 construct: Human B7H4 ECD; FLAG; 10His; made in house
# T1 sequence (Q7Z7D3 25-259 limits assumed): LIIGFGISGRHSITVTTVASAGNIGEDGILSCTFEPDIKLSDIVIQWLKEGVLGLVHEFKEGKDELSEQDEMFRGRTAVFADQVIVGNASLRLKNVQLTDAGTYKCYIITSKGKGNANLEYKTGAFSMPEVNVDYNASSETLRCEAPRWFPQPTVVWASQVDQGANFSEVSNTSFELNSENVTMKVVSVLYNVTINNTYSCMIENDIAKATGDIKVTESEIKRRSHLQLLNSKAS
# T2: MurineB7-H4 (Mus musculus, UniProt Q7TSP5)
# T2 construct: Mouse B7H4 ECD; FLAG (C); 10His (C); made in house
# T2 sequence (Q7TSP5 25-257 limits assumed): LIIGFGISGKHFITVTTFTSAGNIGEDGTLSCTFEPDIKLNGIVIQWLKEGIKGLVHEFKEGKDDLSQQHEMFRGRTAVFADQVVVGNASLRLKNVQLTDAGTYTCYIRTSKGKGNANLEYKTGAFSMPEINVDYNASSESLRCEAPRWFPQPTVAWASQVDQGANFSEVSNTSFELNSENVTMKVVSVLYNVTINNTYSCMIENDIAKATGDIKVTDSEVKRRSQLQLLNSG
# T3: monomeric B7-H4-FLAG (Homo sapiens, UniProt Q7Z7D3)
# T3 construct: 10His; made in house
# T3 sequence (Q7Z7D3 25-259 limits assumed): T1 sequence (Q7Z7D3 25-259 limits assumed)
# T4: recombinant mouse B7-H4 (Mus musculus, UniProt Q7TSP5)
# T4 sequence (Q7TSP5 25-257): T2 sequence (Q7TSP5 25-257 limits assumed)
# B1: ZY0EQD-E02: anti-B7-H4 antibody clone, VH SEQ ID NO: 33, VL SEQ ID NO: 34 (antibody, V domains shown)
# VH: QVQLQQWGAGLLKPSETLSLTCAVYGGSFSGYYWNWIRQPPGKGLEWIGEINHSGSTSYNPSLKSRVTISVDTSKNQFSLKLSSVTAADTAVYYCARVLYNWNVDSWGQGTLVTVSS
# VL: DIQMTQSPSSLSASVGDRVTITCRASQDIRNDVGWYQQKPGKAPKRLIYAASRLQSGVPSRFSGSGSGTEFTLTISSLQPEDFATYYCLQHNSYPRTFGQGTKVEIK
# B2: ZY0EP0-C07: anti-B7-H4 antibody clone, VH SEQ ID NO: 39, VL SEQ ID NO: 40 (antibody, V domains shown)
# VH: QVQLVESGGVLVKPGGSLRLSCAASGFTLSDYYMSWIRQAPGMGLEWVSYISSSGSTIYYTDSVKGRFTISRDSAKNSLYLQMNSLRAEDTAVYYCARDGVGFDYWGQGTLVTVSS
# VL: EIVLTQSPGTLSLFPGERATLSCRASQSVSSSYLAWYQQKPGQSPRLLIYAASSRATGIPDRFSGSGSGTDFTLTISRLEPEDFAVYYCQQYGSSPLYTFGQGTKLEIK
# B3: ZY0EPQ-E02: anti-B7-H4 antibody clone, VH SEQ ID NO: 31, VL SEQ ID NO: 32 (antibody, V domains shown)
# VH: B1 VH with S58N, S70L, V98N, V104L
# VL: B1 VL with D28G, V33L, K42R, A50V, R53S
# B4: ZY0EOB-F05: anti-B7-H4 antibody clone, VH SEQ ID NO: 35, VL SEQ ID NO: 36 (antibody, V domains shown)
# VH: QVQLQESGPGLVKPSQTLSLTCTVSDGSISSGGYYWSWIRQHPGKGLEWIGNIYYSGSTYYNPSLKSRVTISVDTSKNQFSLKLNSVTAADTAVYYCATEKALATVTPSGYENYYTVDVWGQGTTVTVSS
# VL: DIQLTQSPSFLSASVGDRVTITCWASQGISSYLAWYQQKPGKAPKLLIYAASTLQSGVPSRFSGSGSGTEFTLTISSLQPEDFATYYCQHLNSYPLTFGGGTKVEIK
# B5: ZY0E05-E07: anti-B7-H4 antibody clone, VH SEQ ID NO: 37, VL SEQ ID NO: 38 (antibody, V domains shown)
# VH: B4 VH with D26G, N85S, T99R, T105S, T107I, T116V
# VL: B4 VL with D17G, S30A, S31G
# B6: E02-INT Fab: antigen binding fragment of anti-B7-H4 antibody E02-INT (antibody, V domains shown)
# VH: B1 VH with T21A, A23T
# VL: B1 VL
# Biological target: T1, HumanB7-H4
# Assay: ForteBio Octet affinity
# Type: binding
# Conditions: hIgG1 (n = 1)
Molecule,kdis [s⁻¹],kon [M⁻¹ s⁻¹]
B1,0.00321,216000
B2,0.000363,48800
B3,0.00208,85900
B4,0.000362,31000
B5,0.000318,21700

# Same assay, conditions: hIgG1-TM (n = 4-7)
Molecule,kdis [s⁻¹],kon [M⁻¹ s⁻¹]
B1,0.00278,193000
B2,0.000397,41600
B3,0.00182,70900
B4,0.000355,26500
B5,0.000338,17100

# Biological target: T2, MurineB7-H4
# Assay: ForteBio Octet affinity
# Type: binding, murine
# Conditions: hIgG1 (n = 1)
Molecule,kdis [s⁻¹],kon [M⁻¹ s⁻¹]
B1,0.213,341000
B2,0.000551,60200
B3,0.0498,100000
B4,0.000493,24900
B5,0.000415,17900

# Same assay, conditions: hIgG1-TM (n = 4-7)
Molecule,kdis [s⁻¹],kon [M⁻¹ s⁻¹]
B1,0.126,203000
B2,0.000524,43000
B3,0.0304,76700
B4,0.000476,18700
B5,0.000361,12100

# Biological target: T3, monomeric B7-H4-FLAG
# Assay: HTRF epitope binning
# Type: binding
# Conditions: not given
# Procedure: Epitope binning was performed in an HTRF assay format using the exemplary antibodies (IgG1-TM) conjugated with DyLight-649 binding to the monomeric B7-H4-FLAG LCD with detection with europium conjugated anti-FLAG antibody.
# Bin 1 was defined with the ZY0EPQ-E02, ZY0EQD-E02 and ZY0E05-E07 antibodies fully inhibiting each other, and only partial inhibiting ZY0EP0-C07. Bin 2 was defined with the ZY0EOB-F05 antibody fully competing with all antibodies and all antibodies fully competing with it. Bin 3 was defined with ZY0EP0-C07 partially competing with antibodies ZY0EPQ-E02, ZY0EQD-E02 and ZY0E05-E07 (Bin 1).
row,Molecule,Epitope Bin
1,B2,Bin 3

# Same assay, conditions: listed as ZY0EPO-C07
row,Molecule,Epitope Bin
1,B2,3

# Test system: OVCAR4 cells
# Assay: On-cell western
# Type: cell-based, human
# Conditions: not given
# Procedure: (§1) The on-cell western method was developed and used to run 5 exemplary antibody clones with the following cells: SKBR3, A549, OVCAR4 (all minus transfections with B7-H4 vector), CHO and HEK cells (plus and minus transfection with full length B7-H4 vector).
# (§2) Cells were detached from T175 flasks using Accutase and counted. Transfection method used was essentially that stated in the Invitrogen Lipofectamine LTX protocol (high throughput protocol using the reverse transfection method). 100 μl of cells (4.5×10^4 per 100 μl) was added to 96 well plates containing the DNA-lipofectamine mix. Plates incubated at 37° C. for 18 hours and fixed using 10% buffered formalin overnight. Plates were blocked with Odyssey blocking buffer, incubated with appropriate primary antibodies overnight followed by washing and detection with the appropriate Odyssey secondary antibody.
# (§3) Plates were air dried and scanned using the Odyssey Imager using the recommended scan levels provided by the manufacturer.
row,Molecule,binding to OVCAR4 cells
1,B1,bind
2,B3,bind
3,B4,bind
4,B5,bind

# Test system: transfected HEKs (full length B7-H4 vector)
# Assay: On-cell western
# Type: cell-based
# Conditions: not given
# Procedure: as §1, §2, §3
row,Molecule,binding to transfected HEKs
1,B4,good results
2,B5,good results

# Test system: transfected CHOs (full length B7-H4 vector)
# Assay: On-cell western
# Type: cell-based, Chinese hamster
# Conditions: not given
# Procedure: as §1, §2, §3
row,Molecule,binding to transfected CHOs
1,B4,bind
2,B5,bind

# Test system: SKBR3, A549, OVCAR4, CHO and HEK cells
# Assay: On-cell western, panel of cell types
# Type: cell-based
# Conditions: compared with control antibodies (lanes E, U, R, S)
# Procedure: as §1, §2, §3
row,Molecule,binding across cell types
1,B1,bind a wide spectrum of cell types
2,B3,bind a wide spectrum of cell types

# Test system: B7-H4 from human (including a splice variant), cynomolgus macaque, mouse and rat
# Assay: Clone ZY0EQD_E02 specificity ELISA
# Type: binding
# Conditions: Maia format mAbs
row,Molecule,binding profile to B7-H4 antigens
1,B1,"binding to human, cynomolgus, mouse and rat B7-H4"

# Biological target: T4, recombinant mouse B7-H4
# Assay: SPR affinity of Fab
# Type: binding
# Conditions: not given
# Procedure: The binding affinity of anti-B7-H4 antibody E02-INT Fab for recombinant human, cynomolgus monkey, and mouse B7-H4 variants were determined by surface plasmon resonance (SPR).
row,Molecule,fold lower affinity for mouse than for human B7-H4 antigen
1,B6,approximately 100 fold

# Test system: B7-H4-SV (splice variant)
# Assay: ForteBio Octet affinity
# Conditions: hIgG1 (n = 1)
Molecule,kdis [s⁻¹],kon [M⁻¹ s⁻¹],KD (nM)
B1,0.00349,4190,
B2,,,No Binding
B3,0.00252,2460,
B4,0.000598,4710,
B5,0.000528,2910,

# Same assay, conditions: hIgG1-TM (n = 4-7)
Molecule,kdis [s⁻¹],kon [M⁻¹ s⁻¹],KD (nM)
B1,0.00269,3360,
B2,,,No Binding
B3,0.00229,1380,
B4,0.000584,3350,
B5,0.000499,1890,

# Same assay, conditions: summary Table 14
row,Molecule,Octet KD (nM)
1,B2,No Binding

# From patent US20240239894A1, “THERAPEUTIC BINDING MOLECULES” (MedImmune Limited, priority 2020, published 2024)
